Experiment: yeast display, Sf9 membrane polyspecificity reagent, FACS + sequencing; frameworks hold sequencing errors
Procedure, shortened: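 In a synthetic yeast display library (Saccharomyces cerevisiae BJ5465), nanobody expression was induced with galactose for 36–48 hours. FACS gates were set low and high (top ~1%) using anti-HA fluorescence for expression and streptavidin fluorescence for binding of the Sf9 membrane reagent. Each polyreactivity label is drawn from the gate of origin.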

Row | Sequence | polyreactivity (PSR sort gate)
1 | QVQLVESGGGLVQAGGSLRLTCAASGNTFYQYAMGWYRQATGKERELVAAISSSGGSTYYADSVKGRFTISRDNAKNTVYLQMNSLKPEDTAVYYCATDKWYGYYYWGQGTQVTVSS | low polyreactivity
2 | QVQLVESGGGLVQAGGSLRLTCAASGRIFGKYAKGRYRQAAGKEREFVATITRGGGTTSYADSVKGRFTNSRDNAMNTVYLQMNSLKPVDTAVYYCATRYFRGSYRNGDYWGQGTQVTVSS | high polyreactivity
3 | QVQLVESGGGLVQAGGSLRLTCAASGRIFIGYAMGWYRQAPGKERELVAAISRNGDNTYYADSVKGRFTISRDNAKNTVYLQMISLKPEDSAVYYCAAVAYPRQWKLSYEDGSWGYDYWGQGTQVTVSS | low polyreactivity
4 | QVQLVESGGGLVQAGGSLRLTCAASGRIFLYYTMGWYRQAPGKERELVAAITRSGGSTYYADSVKGRFTISRDNAKNTVYLQMNSLKPEDTAVYYCKRAYVRYVPMNYWGQGTQVTLSS | high polyreactivity
5 | QVQLVESGGGLVQAGGSLRLTCAASGRIFPYMGWYRQAPGKERELVAAISSRGGNTYYADSVKGRFTISRDNAKNTVYLQMNSLKPEDTAVYYCNKVKYTWYDWGQGTQVTVSS | high polyreactivity
6 | QVQLVESGGGLVQAGGSLRLTCAASGRIFTRYAMGWYRQAPGKERELVAAINYRGSSTYYADSVKGRFTISRDNAKNTVYLQMNSLKPEDTAVYYCNTYGQTDTYWRYYYWGQGTQVTVSS | high polyreactivity
7 | QVQLVESGGGLVQAGGSLRLTCAASGRIFTRYMGWYRQAPGKERELVATINWSGGSTYYADSVKGRFTISRDNEKNTFYLQMNSLKPEDTAVYYCNARNVHFYYVQYNGAKIFDYWGQGTQVTVSS | low polyreactivity
8 | QVQLVESGGGLVQAGGSLRLTCAASGRIFWGNAMGWYRQAPGKERDLVAAITSCDGTNYADSVKGRFTISRDNAKNTVYLQMNSLKPEDTAVYYCAARKYYYLQYTPRYDYWGQGTQVTVSS | low polyreactivity
9 | QVQLVESGGGLVQAGGSLRLTCAASGRIFYDKSMGWYRQSPGKERELVAAIRRSGGDTYYADSVKGRFTISRDIAKNTVYLQMNSLKTVDTAVYYCADTYSDYGRRYGYWGQGTLVTVSS | high polyreactivity
10 | QVQLVESGGGLVQAGGSLRLTCAASGRIFYGNALGWYRQAPGKERELVAAISSGGGSTYYADSVKGRFTISRDNAKNTVYLQLNSLKPEDTAVYYCAADPVHRFPGTGGFWGKGTQVTVSS | low polyreactivity
11 | QVQLVESGGGLVQAGGSLRLTCAASGRIFYLNAMGWYRQAPGKERELVAGLTNSTTGTYYADSVKGRFTISRDNAKNTVDLQMNSLKPEDTAVYYCNSDVAYEEPVETYDYWGQGTQVTVSS | low polyreactivity
12 | QVQLVESGGGLVQAGGSLRLTCAASGRNFDYNARGWYRQAPGKEREFVAPISGRGGSTYYADSVKGRFTISRDNAKNRVYLQMNSLKPEDTAVYYCAADWRYRYSGRYDYWGQGTQVTVSS | high polyreactivity
13 | QVQLVESGGGLVQAGGSLRLTCAASGRNFRAYAMGWYRQAPGKERELVAAISTSGGSTRYADSVKGRFTISRDNAKNTVYLQMNSLKPEDTAVYYCARYTTRTYEYNYWGQGTQVTVSS | high polyreactivity
14 | QVQLVESGGGLVQAGGSLRLTCAASGRTFAGNAMGWYRQAPGKERELVAAIRRTGGRTYYADSVKGRFTISRDNAKNSVYLQRNSLKPEDTAVYYCYAVNKPYTREYGYDYWGKGTQVTVSS | high polyreactivity
15 | QVQLVESGGGLVQAGGSLRLTCAASGRTFALYAMGWYRQAPGKERELVAGITGRGGTTHYADSVKGRFTISRDYAKNTVYLQMNSLKPEDTAVYYCATTQSWRVPYRRLGYWGQGTQVTVSS | low polyreactivity
16 | QVQLVESGGGLVQAGGSLRLTCAASGRTFDQYAMGWYRQAPGKERDLVAAITSGGSTYYADSVKGRFTISRDNAKNTVYLQMNSLKPEDTAVYYCYTDSSFWGYYIAQVNERDYWGQGTQVTVSS | low polyreactivity
17 | QVQLVESGGGLVQAGGSLRLTCAASGRTFGLNTMGWYRQAPGKERELVAAISRRGGSTYYADSVKGRFTISRDNAKNTVYLQMNSLKPEDTAVYYCARTSYNRYDYWGQGTQVTVSS | high polyreactivity
18 | QVQLVESGGGLVQAGGSLRLTCAASGRTFHGNAMGWYRPAPGKERELVAAISYSGGRTYYADSVKGRFTISRDNAKNTVYLQMNSLKPEDTAVYYCAAWGSSYSFDYWGQGTQVTVSS | high polyreactivity
19 | QVQLVESGGGLVQAGGSLRLTCAASGRTFKYYAMGWYRQAPGKERELVAAITRSGGNTYYADSVKGRFTISRDNAKNTVYLQMNSLKPEDTAVYYCAKRLGYRYPTYDYWGQGTQVSVSS | high polyreactivity
20 | QVQLVESGGGLVQAGGSLRLTCAASGRTFRIYAMGWYRQAPAKERELVAAIRWSGGTTYYADSVKGRFTISRDNTNNSVYLQMNSLKPEDTAVYYCNKARLGWSYRQDDYWGQGTQVTVSS | high polyreactivity
21 | QVQLVESGGGLVQAGGSLRLTCAASGRTFRYYVMGWYRQAPGKERELVASITSDATYYADSVKGRFTISRDNAKNTVYLQLNSLKPEDTAVYYCAKRYPYRHRTYNPVAYDYWGQGTQVTVSS | high polyreactivity

Row | Sequence | polyreactivity (PSR sort gate)
22 | QVQLVESGGGLVQAGGSLRLTCAASGRTFTLNSMGWYRQAPGKERELVAAIRRGGSTYYADSVKGRFTISRDNAKNTVYLQMNSLKPVDTAVYYCAAYKGSYGGYRMQYSYNYWGQGTQVTVSS | high polyreactivity
23 | QVQLVESGGGLVQAGGSLRLTCAASGRTFTVYAMGGYRQAPGKEREFVAAITERGGSTYYADSVKGRFTISRDNAKNTVYLQMNSLKPEDTAVYYCAAVYYWRPGWYVRFDYWGQGTQVTVSS | low polyreactivity
24 | QVQLVESGGGLVQAGGSLRLTCAASGRTFWYYAMGWYRQAPGKERELVAASYYSGDGTYYADSVKGRFTISRDNAKNTVYLQMTSLKPEDTALYYGAAEWSDPTLPTAWSEYEYWGQGTHVTVSS | high polyreactivity
25 | QVQLVESGGGLVQAGGSLRLTCAASGRTFYIYAMGWYRPAPGKERQLVAAITYGGGRTFYADSVKGRFTISRYNAKNTVYLQMNSLKPEDTAVYYCGATVRGKRSTYDYWGQGTQVTVSS | high polyreactivity
26 | QVQLVESGGGLVQAGGSLRLTCAASGRTFYVNAMGWYRQAPGKEREFVAAISRRGGSTYYADSVKGRFTISRDNAKNTVYLQMNCLKPEDTAVYYCNAAYSSRYDYWGQGTQVTVSS | high polyreactivity
27 | QVQLVESGGGLVQAGGSLRLTCAASGSIFDYYAMGWYRQAHGKERELVAAISDSGSTYYADSVKGRFTISRDNAKNTVYVQMNSLKAEDTAVYYCAAVLWSPYRSEPLDTYEYWGQGTQVTVSS | low polyreactivity
28 | QVQLVESGGGLVQAGGSLRLTCAASGSIFGPNTMGWYRQAPGKERELVAAIRCGGSTNYADSVKWRFTISRDNAKNTVYLQMNSLKPDDTAVYYCIATWNLFPGVLDRYVYWGQGTQVTVSS | low polyreactivity
29 | QVQLVESGGGLVQAGGSLRLTCAASGSIFHGNDMGWYRQAPGKETELVATISSGGSTYYADSVKGRFTSSRDNAKTTVYLQMNSLKPEDTAVYYCAAERFWPYKSYYWGQGTQVTVSS | low polyreactivity
30 | QVQLVESGGGLVQAGGSLRLTCAASGSIFPDNAMAWYRQAPGNERELVAAITSSGGSTYYADSVKGRLRISRDNAKNTVYLQMNSLKPADSAVYYCAKGRSYSVAKRRLYKYWGQGTEVTVSS | high polyreactivity
31 | QVQLVESGGGLVQAGGSLRLTCAASGSIFRINAMGWYRQEPGKEREFVAVITSRTGNTYYADSVKGRFTISRDNAKNTVYLQMNSLKPEDTAVYYCAADYPPARWEMEYWGQGTQVTVSS | low polyreactivity
32 | QVQLVESGGGLVQAGGSLRLTCAASGSIFRYYAMGWYRQAPGKERELVAAISSNGGSTYYADSVKGRFTISRDNAKNTVYLQMNSLKPEDTAVYYCAALFRRAPGYYWGQGTQVTVSS | high polyreactivity
33 | QVQLVESGGGLVQAGGSLRLTCAASGSIFSRYAMGWYRQAPGKERELVAAISQRAGSTYYADSVKGRFTISRDNAKNTVYLQMNSLKPEDTAVYYCAARRRGRKERGEDYWGQGTQVTVSS | high polyreactivity
34 | QVQLVESGGGLVQAGGSLRLTCAASGSIFTGYAMRCYRQAPGTERELVAAIRTRGGSPYYADSVKGRFTISRDNAKNTVYLQMNSLKPEDTALYYCAKRYYGWYGNFDYWGQGTQVTVSS | high polyreactivity
35 | QVQLVESGGGLVQAGGSLRLTCAASGSIFYRNAMGWYRQAPGKERELVAAISTDGSTNYADSVKGRFTISRDNAKNTVYLHMNSLIPEDTAVSYCAAPWTQILDYWGQGTQVTVSS | low polyreactivity
36 | QVQLVESGGGLVQAGGSLRLTCAASGSIIKRNAMGWYRQAPGKERELVASISSGGSTKYADSVKGRFTISRDNAKTTVYLQMNSLKPEDTAVYYCPKRSSQTRRAYDYWGQGTQVTVSS | low polyreactivity
37 | QVQLVESGGGLVQAGGSLRLTCAASGSILYTYAMGWYRQAPGKERELVAAISRGGGSTYYADSVKGRFTISRDNAKNTVYLQMNSLKPEDTAVYYCAARKLTRGTGRDDEYWGQGTQVTVSS | high polyreactivity
38 | QVQLVESGGGLVQAGGSLRLTCAASGSTFAWYAMGWYRQAPGKERELVAAISRTGRTYYADSVKGRFTISRDNAKNTVYLQMNSLKPEDTAVYYCAARIERFYRDQRYDYWGQGTQVTVSS | high polyreactivity
39 | QVQLVESGGGLVQAGGSLRLTCAASGSTFDLNAMGWYRQSPGKERELVARISSVGSTNYADSVKGRFTISRDNAKNSVYLQMNSLKPEDTAVYYCNAGFWDLYDYWGQGTQVTVSS | low polyreactivity
40 | QVQLVESGGGLVQAGGSLRLTCAASGSTFIRNTMGWYRQAPGKERELVAAISRSGVRTYYADSVKGRFTISRDNAKNTVYLQMNSLKPEDTAVYYCNVLRYRLWGQGTQVTVSS | high polyreactivity
41 | QVQLVESGGGLVQAGGSLRLTCAASGSTFKYYAMGWYRQAPGKERELVAAINQSGGNTFYAESVKGRFTISRDNAKNSVSLQINSLKPEDTAVYYCAADYYFYTIVSSEMDYWGQGSQVTVSS | high polyreactivity

From the nanobody polyreactivity screen of Harvey et al. (2022)
